Experiment [1] deals with His-HBx coexpressed with GST-DDB1 (hepatitis B virus (genotype D)) (UniProt P03165). Briefly: AlphaScreen or HTRF; TR-FRET competition; 3 nM coexpressed His-HBx:GST-DDB1 complex preincubated with increasing untagged competitor 1 h at room temperature; Eu-cryptate anti-His and d2 anti-GST antibodies; 20 mM HEPES pH 7.2, 50 mM NaCl, 0.1 mg/ml BSA, 0.01% Brij-35, 0.5 mM TCEP. A general note: Bead proximity is the source of the signal in Alpha formats.

The target of experiment [2] is His-HBx expressed alone (detergent solubilized) (hepatitis B virus (genotype D)) (UniProt P03165). Put plainly: AlphaScreen or HTRF; TR-FRET competition; 5 nM His-HBx and 5 nM GST-DDB1 expressed separately, preincubated with increasing untagged competitor 30 min at room temperature; Eu-cryptate anti-His and d2 anti-GST antibodies; 25 mM HEPES pH 7.2, 400 mM NaCl, 0.1 mg/ml BSA, 0.01% Brij-35, 0.5 mM TCEP.

Experiment [3] deals with GST-DDB1 (UniProt Q16531). Briefly: AlphaScreen or HTRF; TR-FRET competition; 3 nM coexpressed His-HBx:GST-DDB1 complex preincubated with increasing untagged competitor 1 h at room temperature; Eu-cryptate anti-His and d2 anti-GST antibodies; 20 mM HEPES pH 7.2, 50 mM NaCl, 0.1 mg/ml BSA, 0.01% Brij-35, 0.5 mM TCEP.
A further experiment has as its target DDB1 (UniProt Q16531). Put plainly: AUC; sedimentation velocity at 20 C, absorbance at 280 nm, c(s) distribution (SEDFIT), each protein in its final storage buffer.
In experiment [4] the target is GST-DDB1 (UniProt Q16531). Put plainly: AlphaScreen or HTRF; TR-FRET competition; 5 nM His-HBx and 5 nM GST-DDB1 expressed separately, preincubated with increasing untagged competitor 30 min at room temperature; Eu-cryptate anti-His and d2 anti-GST antibodies; 25 mM HEPES pH 7.2, 400 mM NaCl, 0.1 mg/ml BSA, 0.01% Brij-35, 0.5 mM TCEP.
Experiment [5] deals with T1, GST-DDB1 (UniProt Q16531 1-1140).
T1 construct: also called glutathione S-transferase (GST)-DDB1; not shown: GST, N-terminal, kept
The description is as above. The settings on record: both partners purified.

Experiment [6] addresses T1, GST-DDB1. Put plainly: AlphaScreen or HTRF; TR-FRET competition; 3 nM coexpressed His-HBx:GST-DDB1 complex preincubated with increasing untagged competitor 1 h at room temperature; Eu-cryptate anti-His and d2 anti-GST antibodies; 20 mM HEPES pH 7.2, 50 mM NaCl, 0.1 mg/ml BSA, 0.01% Brij-35, 0.5 mM TCEP. The settings on record: both partners purified.

As usually defined, the IC50 is the concentration at which inhibition is half-maximal. A higher IC50 goes with lower potency. One may read the stoichiometry N as the number of molecules, sites or subunits per partner or assembly.

Turning to “DDB1 (from UniProt Q16531 1-1140) (natural protein)”, the IC50 in experiment [1] is 16 nM; in experiment [2], 204 nM.

In the experiment with GST-DDB1 [3], “HBx H-box peptide (R96E mutant) (from UniProt P03165 88-102) (peptide; other documents disagree on this pair)” came in with a half-inhibitory concentration (IC50) greater than 100000 nM.

As for “HBx coexpressed with DDB1 (HBx:DDB1 coexpressed complex) (from UniProt P03165 1-154) (natural protein)”, the stoichiometry N with DDB1 amounted to 1.

Consider “recombinant untagged HBx (from UniProt P03165 1-154) (natural protein)”, for which the IC50 was determined as 9 nM with GST-DDB1 [3] and 61 nM with GST-DDB1 [4].

ILPKVLHKRTLGLSA [HBx H-box peptide (wild type)]: the IC50 with GST-DDB1 [5] is 5000 nM; with GST-DDB1 [6], 1560 nM.

B1: SV5-V (natural protein)
chain: MDPTDLSFSPDEINKLIETGLNTVEYFTSQQVTGTSSLGKNTIPPGVTGLLTNAAEAKIQESTNHQKGSVGGGAKPKKPRPKIAIVPADDKTVPGKPIPNPLLGLDSTPSTQTVLDLSGKTLPSGSYKGVKLAKFGKENLMTRFIEEPRENPIATSSPIDFKRGRDTGGFHRREYSIGWVGDEVKVTEWCNPSCSPITAAARRFECTCHQCPVTCSECERDT
notes: also called V protein of paramyxovirus SV5; source: E. coli Rosetta, purified (glutathione agarose, thrombin cleavage, MonoQ, Superdex 75); not shown: GST, N-terminal, cleaved
B1: the IC50 with GST-DDB1 [5] turned out to be 7 nM; in the experiment with GST-DDB1 [6] it was 4 nM.
